# T1: GFP-9S library array, motif 4 ND N98T;D124S (synthetic construct, N98T;D124S)
# T1 chain: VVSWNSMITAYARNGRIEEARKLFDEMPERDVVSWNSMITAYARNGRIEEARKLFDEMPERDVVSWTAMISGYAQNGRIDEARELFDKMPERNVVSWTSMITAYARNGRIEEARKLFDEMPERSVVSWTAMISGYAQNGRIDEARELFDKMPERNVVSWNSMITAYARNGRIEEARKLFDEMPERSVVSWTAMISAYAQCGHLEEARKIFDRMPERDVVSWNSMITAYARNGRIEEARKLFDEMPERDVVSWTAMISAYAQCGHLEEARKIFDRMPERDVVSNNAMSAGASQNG
# T2: GFP-9S library array, motif 4 ND N98E;D124I (synthetic construct, N98E;D124I)
# T2 chain: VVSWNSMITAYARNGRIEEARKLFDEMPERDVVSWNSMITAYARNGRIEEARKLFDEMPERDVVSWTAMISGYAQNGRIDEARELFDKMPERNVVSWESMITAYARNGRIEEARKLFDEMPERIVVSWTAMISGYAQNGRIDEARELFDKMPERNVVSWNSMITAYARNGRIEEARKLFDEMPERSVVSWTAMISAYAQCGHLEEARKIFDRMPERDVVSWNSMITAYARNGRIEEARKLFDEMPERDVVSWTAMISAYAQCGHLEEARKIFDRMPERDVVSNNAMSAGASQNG
# T3: GFP-9S library array, motif 4 ND N98H;D124N (synthetic construct, N98H;D124N)
# T3 chain: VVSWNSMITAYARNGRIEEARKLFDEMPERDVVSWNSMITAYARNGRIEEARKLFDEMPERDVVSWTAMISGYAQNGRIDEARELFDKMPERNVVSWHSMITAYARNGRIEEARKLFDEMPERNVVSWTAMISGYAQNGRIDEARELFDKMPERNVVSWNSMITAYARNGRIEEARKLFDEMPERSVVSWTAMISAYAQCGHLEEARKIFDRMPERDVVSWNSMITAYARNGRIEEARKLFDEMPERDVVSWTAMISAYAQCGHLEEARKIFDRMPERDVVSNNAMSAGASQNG
# T4: GFP-9S library array, motif 4 ND N98V;D124M (synthetic construct, N98V;D124M)
# T4 chain: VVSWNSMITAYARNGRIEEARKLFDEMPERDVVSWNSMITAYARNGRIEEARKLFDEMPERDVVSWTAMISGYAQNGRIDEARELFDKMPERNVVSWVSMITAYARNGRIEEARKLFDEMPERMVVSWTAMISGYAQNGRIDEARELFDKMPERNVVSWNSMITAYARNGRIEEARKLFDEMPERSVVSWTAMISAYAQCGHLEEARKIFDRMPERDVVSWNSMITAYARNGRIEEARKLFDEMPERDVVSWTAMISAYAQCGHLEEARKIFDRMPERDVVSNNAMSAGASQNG
# T5: GFP-9S library array, motif 4 ND D124P (synthetic construct, D124P)
# T5 chain: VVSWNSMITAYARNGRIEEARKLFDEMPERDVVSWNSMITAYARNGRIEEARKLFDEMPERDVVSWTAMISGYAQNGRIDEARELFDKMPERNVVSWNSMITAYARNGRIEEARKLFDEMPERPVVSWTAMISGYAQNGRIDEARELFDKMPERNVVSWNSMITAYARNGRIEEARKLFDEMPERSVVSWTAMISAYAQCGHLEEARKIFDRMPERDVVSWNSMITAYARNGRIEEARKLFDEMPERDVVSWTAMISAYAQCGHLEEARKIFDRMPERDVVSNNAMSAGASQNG
# How the values were obtained:
# Test in all cases: high-throughput RNA pulldown from lysate on Ni-NTA beads; HRP: 50 mM Tris pH 8, 150 mM NaCl, 1 mM beta-mercaptoethanol, 50 ug/ml BSA, 3 ug/ml yeast RNA, 0.5% heparin; ITC and FP: Tris pH 8, 200 mM KCl, 5% glycerol; MST: 50 mM Tris pH 8, 200 mM NaCl, 1 mM DTT, BSA, heparin, 0.05% Tween 20
# Details in all cases: tags: N-terminal His-eGFP
# [1] = biological target: T1, GFP-9S library array, motif 4 ND …
# [2] = biological target: T2, GFP-9S library array, motif 4 ND …
# [3] = biological target: T3, GFP-9S library array, motif 4 ND …
# [4] = biological target: T4, GFP-9S library array, motif 4 ND …
# [5] = biological target: T5, GFP-9S library array, motif 4 ND D124P
Binder,Kd ([1]; label: 5' Cy5),Kd ([2]; label: 5' Cy5),Kd ([3]; label: 5' Cy5),Kd ([4]; label: 5' Cy5),Kd ([5]; label: 5' Cy5),Kd ([1]; label: 5' IRDye 800CW),Kd ([2]; label: 5' IRDye 800CW),Kd ([3]; label: 5' IRDye 800CW),Kd ([4]; label: 5' IRDye 800CW),Kd ([5]; label: 5' IRDye 800CW)
AUUACACGUGA (ssRNA) [Cy5-rpoA],37 nM,4240 nM,36.1 nM,148 nM,123 nM,–,–,–,–,–
AUUAAACGUGA (ssRNA) [IR-rpoA-A],–,–,–,–,–,18.4 nM,5140 nM,189 nM,431 nM,290 nM
AUUAUACGUGA (ssRNA) [IR-rpoA-U],–,–,–,–,–,48.8 nM,4070 nM,30.8 nM,294 nM,154 nM
AUUAGACGUGA (ssRNA) [Cy5-rpoA-G],65.5 nM,3860 nM,149 nM,155 nM,158 nM,–,–,–,–,–

# Source: paper PMC8809517, “Cofactor-independent RNA editing by a synthetic S-type PPR protein”
